The nature of this data set: label from the status in PepcDB records.

As for “MLKNFNGRPSLATVLKASTVAGIAAAVLATGVPLEITRSYAEAVKVQAPAVPSFANVVDAVSPAVVSVRVENRVNPVSDNNNDGFSFDFNGRGFDDLPDDHPLKRFFKQFGQDPNDQQGHSRRFGQNGPNGGPNGPGGKGRLRPVAQGSGFFISEDGYIVTNNHVVSDGQAFVAVMNDGTELDAKLIGKDPRTDLAVLKVDGKGKKFTYVNWADDNNVRVGDWVVAVGNPFGLGGTVTAGIVSARGRDIGSGPYDDYLQVDAAVNRGNSGGPTFNLSGEVVGINTAIFSPSGGSVGIAFAIPASTARDVVADLMKDGQVSRGWLGVQIQPVTKDIAESIGLSEPSGALVVAPQAGSPGDKAGMKAGDVVTALNGETIKDARDLSRRIGAMQPGSKVELSVWRAGKAQPLTVELGTLPIDQKDASADDNSQPQQPEAPASEKALADLGLTVGPSDDGKGLAITGIDPDSDAADKGIKEGEKITSVNNQEVASPEDVVKVLNQAKKDGRTRALFQIQSNEGSRFVALPINGQG”, the protein production result was “failed”.

As for “MLKNIFKISNIPAVLWGDKSEKIFIAVHGNMSNKEDAVIQIVAEEADRKGYQVLSFDLPEHGERKNDNTPCKVQFCVNELSIIMNYAKEHWKEINVFACSMGAYFSLLAFQNDVIEKALFLSPVVNMERIIENMMKWFNVTPELLQKEMTIETPIGQKLYWDYLCYVKEHPISTWNTDTYIMYGAKDELCEFETINYFTKKHRCELEVMETGEHYLHTEEQLKIFEQWLHKHID”, the protein production entry was “failed”.

Consider “MLKQRIITALILLPIALCGFFLLEGSGFALFIGLVVSLGAWEWARLAGFEAQPARVAFAVVVAALLFLMHLVPGVAPWVLGAAVLWWALATYLVLTYPRSSEQWSGAAPKLLIGLLILLPAWQGLVFIKQLPLGNWLIMAVMVLVWGADIGAYFSGKAFGKRKLAPQVSPGKSWEGVYGGLALSLVITAVVGLVRDWTLGQMILGLLGAAIVVFISVVGDLTESMFKRQSGIKDSSNLLPGHGGVLDRIDSLTAAIPVFAVLLWMAAL”, for which the protein production entry is listed as “failed”.

Take “MLKSGETNGVQSNVVRASSRMRGLAEPGIKDNQGRTWRRLIVTDCFISTKVWYSLYKGTLEATRKRVSDYISDLTMVEIIGLQAFTTDGGIAS”: the protein production result is “failed”.

For “MLKTPYYLIDKRALLQNLEVIRRIRERSGAKVLLALKCFATWSVFDLMREYMDGTTSSSLFEVRLGREKFGGETHAYSVAYAEDDIDDVVACADKIIFNSLSQLERYAPRASAIPRGLRLNPGISVSGYDLANPARPFSRLGETDLDRIAQAMPMIDGFMVHNNCENRDFTRFDALLTELEHRYGHLLGQINWISLGGGIHFTEPGYALDAFCDRLRRFSEQYGVQVYLEPGEAAITNTATLEVTVLDVMRNEKNLAIVDAATEAHMLDLLIYRMSARVQPDQGPHRYVIYGNSCLAGDVFGEFSFESPLQPGSRISIQDAAGYTMVKKNWFNGVRMPAIAIRELDGEIRLVREFGYQDYVDSLS”, the protein production entry is “failed”.

In the case of “MLLDGTPFARRRVTSLTSANRKGAARRTCPEAAGGPMASSAGLALCAQTLVVRGGSRFLAFSTTGSDDDCVFTYDCSTAEKKATPEDKGEDGQPADTGSDSILASTFSKSGRYFALTDDSKRLILFRTKPWQCLSARTIACQCVYFCVLDGIKCVLFRNSTRQVLSQACIEPAHCCGAVVSGSLCPLVIXAVSPDDQFVLTADRDEKIRVSWAAAPHSIESFCLGHTEFVSRILVVPSHPELLLSSSGDGTLRLWEYRSGRQLQCCDLAGLQEPGEQPGHKGLAASRIAFWGQESYVVLLCECVPVVFVFQLDASRQQLVFRQRLTFPHRVWDVVFEEARGLWVLQDCRDAPLVLWRPVGGEWQAAPDGAVSPRLCSHLRESWAMLEGSVGTDDSFRSLYKATFDNMTSYLKKKEERLQQQLKKKRQRSPFPGSPEQTKKACPGQSALSC”, the protein production entry is “failed”.

Take “MLLEQQKQLISLIQAAVAQCLPEAQAQVQLERPKVAAHGDIATNVAMQLAKPARRNPRELAQGIVDALMAQPQARELIQDAEIAGPGFINFRLTPAARQAVVQAVASQADA”: the protein production entry was “failed”.

Take “MLLFTPGPVAINEEMRTSFSQPMPHHRTKDFEKIFQSVRENLKKMTGLEEVLLLSSSGTGAMEASVISLCQKELLFVNAGKFGERFGKIAKAHSIKAHELVYEWDTPAQVDEILSVLKANPNIDAFCIQACESSGGLRHPVEKIAQAIKETNPNVFVIVDAITALGVEPLEITHVDALIGGSQKAFMLPPAMSLVALSQNAIERIEERNVGFYFNLKSELKNQRNNTTSYTAPILHTLGLQRYFELVQNLGGFEALYRETKKAALATQKAVLALGLKIFPKSPSLSMTTIVNEHAKELRNLLKEKYQVQFAGGQEPYKDALIRINHMGIIPVYKSAYALNALELALNDLDLREFDGVANATFLKQYYGI”: the protein production entry was “failed”.

Turning to “MLLKILVKLIILDSSCSFLERFKLIIDCYTNKDIPDIDRQLPIWMLWRIWKSRNLSVYQHKSSTWREDFIKTVNDATEWALVWTIDSTTNIQTRQVQSRTHHSAWTRPKEDFVKCNFDCKFSKNNNVSQAGRSKGQHCSMSMEAELQALVMAMQHVWSKGYKKVIFEGDNLRLSSFLRKIKPTSKFTTGSEKIIIRKKGLAMLNSIGQEEKTTK”, the protein production entry is “failed”.

“MLLKQRINANVLVQDGDEPSEDPNELIKQVFALTQESNQLICRIHSTNAQAKLEDGKILLSLLSLRDSYAEQHKILIDAIANTHREPDRYSSREIKWKKVIPVSSLQKQADDISAKLRDLNVKIQAANWQIDLINLEHHHHHH”: the protein production result is recorded as “failed”.

Consider “MLLNEIPWTIPLTVRLSNGLTHTFASVYEALDFLENEWPLRKGERYERAVRTCRRALNRMTPAAVAREAFIAACLEAGMPLVMAPPAREPQGDTVKAAHTA”, for which the protein production result was “not failed”.

Turning to “MLLPRMLEEVVLAVPARDYDRVVAGLAVEGIFHVDSPPQGVKGEVDRSYRALLTQASERSSRIRQYFDLAGVEPYRVSGVEIEVGGWGESWKRYLEKYSGVEKFYSGLLEEYSEAEARLKELLDIEARIAPVAHLDVDIARLYRSGAFDFAVYYGSYSEGLESRVGEIVSRVGGLAAVEASGGSVVVAVAVPKGALSKISPEILRLNLSIYTPPEGVPGSPREAMEYIRGEKARLGRRLVSIQEMASERLGELAEFYTVVTAFENIFKFLVSTLRRGETRIVRGFVDVRDSGRLRSIVDRMTRGSYVLLSLGVRRGGEAPIPSKVDLPQFLKPFSRVVELYGYPEPNEIVPTVFLAITLPLTFALMFPDAGQGLLVLLFSLFYLRRVSRDWAYVIAVMGGASVVSGLLAGEVFGPLVSKMLGLPELWYRLGLETPPYAMPTYAIDHGEEELVPVLVYRALNVSLFMGAFMLSFGTFLGVVNGVIKRDWVGLVESRLPRFLLFASITGPFLVYMDAGEAGSVLRQALLELGGDSIAAKLVLAGSVLGLAWMLLAGPIIYMLEGHSPLAGLANSFLEAYESLLMLVGNIPSFLRIMALALAHSSLMFVIYYLTVMIMQGGILADVVGALLYVGGNLAVAAMEGLLAFAHASRLHFYEWFSKFYSGTGVPYTPIKVEGVRIKIAGQTF”, the protein production result is listed as “failed”.

“MLLQPSRVRSGGRARWHAVQCAAAVTIGRDHPRHRYTRAMSSPLSCRLGCAACCIAPSISSPIPGMPNGKPAGVACVQLDAQLGCRLFGSPLRPAVCGNLRPSLEMCGTSRKQALSMLAALERATQP”: the protein production entry is reported as “failed”.

“MLLSGWGKFVRWLLVLLSILVIIIGINLILDGVYGFGTFSTTQMYQVAKDPLIGVLIGILATALVQSSTTTTTLTVTAVGTGIVSVPVAIPIILGANIGTTITAMLVAFSYVGERREFKRAFTVAAMHVWFNVLVILVLFVVELLFHPFRTISGAIATEITLTTGGSLPTSGVMTKIFDPPTQLLGMNGLIGSIGNPSISAIVCLVVGTILILISVRAMSSQIRTITAATVTSIMDKVINPENSPKATILSNFWSFILGVLFTLMVTASSVTVASMQPVAASGVVKQKPLLGVILGANVGTTVTAMFATFAIVSDQGEFAIQAALIHLIVNFTGALLVLCIPQLANVIIHLAEKTANLTARSYSITLATIVTAYVLVPSAVLMIYFFI”: the protein production entry was “failed”.

Consider “MLLYNKQKKNQNAKGNRILISVTVLGSAGPIRFVAYEDDLVASVIDTALKGYAREGRLPLLGSDFNDFLLYCPMVGPEALSTWDAIGSLGARNFMLCRKPEEKKVEESNGRSDSTINGARKGGSLKAWINKSFNLKVSSH”, for which the protein production entry is “failed”.

Turning to “MLMDGHTHTELCPHGSGEATEKMIQRAIQLGFQRYCITEHAPLPPAFRDQYEGTPAGYTEASLRENQVADYLALANGLKTKYAGQIEISVGFEVDFLPEHVAWTRDFLNTYGPRTQESILSVHFMRGLRQHFWCVDMSTDDFAAGFGQWLKTPQRVFEQYYQTVLASVQADLGPYAPQRIGHMSLVRKYQDYFGLTEPLDVHNLQLVDQTLALVKQQRRQLDLNLAGLYKPYCNDFYPGEQILQRAQKLDIPLVYGSDAHDIASVGRGYHLIKKLIEGLEHHHHHH”, the protein production entry was “failed”.

For the sequence “MLMHATMAALAVFICFAGNYLTGQSMMERPLVVGLVTGILMGDMKTGVLMGASLEAIFLGNVNIGGVIAAEPVTATTLATTFAIISNVEQKAAMTLAVPIGMLAAFVVMFLKNVFMNIFAPSLDKAAREGNQKMVVTLHYGTWIIYYLIIASISFIGILAGSGPVNLFVESIPQNLMNGLSAAGGLLPAVGFAMLMKLLWDNKLAVFYILGFVLTAYLQLPAVAVAVIGTVICVVSAQRDVEFRDILKRKPAASSAVEGSAKEIEEEDFFA”, the protein production result was “failed”.

Take “MLMQYRDLAKNIIKIYQKHGRDWTQLRGDFLHEKIWLDRFLGLLPMSAKVLDLGCGSGTPIAKYLIEQGCQLTGVDTSEVMLDMAQQNFPEQIWINADIRQFSTEQTFDGILAWDSFFHLDPENQRQMFAQFSTHAASGGVLMFTSGPSYGEAIGDMFGGPLYHASLDAAEYRTLLAQYGFETIKMIAEDPECTGHTVWLARKK”: the protein production result was “failed”.

On to “MLNAKTSFALLMAVCLIATGVTGYLLGGINPELIQAWLKAAGIWAPVTYVAVYVVATILILPSTALNLTGGAIFGPWMGTFWTSVGAIIAAIAAFIFARTVGREIVAQRLAGRWQAIDAEVRQGAVFYMFAIRLMPILPYGLVNFAAGLTSISFKDYLIGTALGTVPGILPFVLLGSSGLKAIRTGEVLPLVGALALIGMLVGGSTWYRRRRSFPTRKKP”, for which the protein production entry is on record as “failed”.

For the sequence “MLNATAFCLAYAGFAALSLGMDRHYEDVFDRALPRRRRLALRSLEWLGLALSLWASAGAWGWNYGTVEWIGILSLAGLLLIWLLTFWPRAALGAGGACALAAPVLALL”, the protein production result is “failed”.

Take “MLNFTVGPVMSSEEVRAIGAEQVPYFRTTEFSSTMLENEKFMLEYAKAPEGSKAVFMTCSSTGSMEAVVMNCFTKKDKVLVIDGGSFGHRFVQLCEIHEIPYVALKLEHGKKLTKEKLYEYDNQNFTGLLVNVDETSTAVLYDTMMIGEFCKKNNMFFVCDCVSAFLADPFNMNECGADVMITGSQKVLACPPGISVIVLAPRGVERVEKSKVRTMYFDLKDALKNQERGQTPFTPAVGILLQINERLKEIKKHGGADAEVARIASQAADFRAKIKDLPFELVSESPANGVTSVHPTTANAYDIFLKLKDEYGIWICPNGGEMKDTIFRVGHIGALTHEDNTTLVNAFKDLQKRNLL”: the protein production entry was “not failed”.

On to “MLNIEIYEEAMCCSTGVCGPEPDETLIKTNQINEYLKQNQIEVQRYNMNNNPNEFIQNKEVIRLIQEKGDEVLPITFIEGNIAKTGAYITQEEADEIITVNQMRNGGCCGGDGCC”, for which the protein production result was “not failed”.

The values above are taken from a protein production outcome set (Wang et al. 2014).
